# Reference: IntAct's records for PubMed 24290140
# B1: Four and a half LIM domains protein 1 (Mus musculus), P97447-2 (parent)
# chain: MSEKFDCHYCRDPLQGKKYVQKDGRHCCLKCFDKFCANTCVDCRKPISADAKEVHYKNRYWHDNCFRCAKCLHPLASETFVSKDGKILCNKCATREDSPRCKGCFKAIVAGDQNVEYKGTVWHKDCFTCSNCKQVIGTGSFFPKGEDFYCVTCHETKFAKHCVKCNKGLVKAPVWWPMKDNPGTTTASTAKNAP
# Variants of: B1
# Details: with suh_mouse Rbpj
row,effect of a mutation on the interaction,Variant
1,disrupting interaction strength,MSEKFDCHYCRDPLQGKKYVQKDGRHCCLKCFDKFCANTCVDCRKPISADAKEVHYKNRYWHDNCFRCAKCLHPLASETFVSKDGKILCNKCATREDSPRCKGCFKAIVAGDQNVEYKGTVWHKDCFTCSNCKQVIGTGSFFPKGEDFYCVTCHETKFAKHCVKCNKGLVKAPVAAPMKDNPGTTTASTAKNAP [W175A;W176A]
